Results: paper PMC10728069

Key:
GST-MYBS1 (rice) = assay: pull-down; settings: buffer not stated
[1] = target: His-MoSPAB1ΔSP (Magnaporthe oryzae) (UniProt G4N0C3); assay: pull-down; settings: buffer not stated

## Bsr-d1 promoter 1689 bp
GST-MYBS1 (rice)
  binding signal (fold of bound GST-MYBS1): 0.65
[1]
  binding signal (fold of bound MoSPAB1ΔSP): 1.11
